Measurements from the supplement of paper PMC7877785.
± gives the uncertainty stated by the source.

Assay: self-splicing fitness, log relative to wild type (ln ratio); higher = more splicing; Tetrahymena group I intron in knt gene, E. coli kanamycin selection, DiMSum; sequences stand for … in CUCUCU…GGAGGGAAAAGUUAUCAGGCAUGCACCUGGUAGCUAGUCUUUAAACCAAUAGAUUGCAUCGGUUUAAAAGGCAAGACCGUCAAAUUGCGGGAAAGGGGUCAACAGCCGUUCAGUACCAAGUCUCAGGGGAAACUUUGAGAUGGCCUUGCAAAGGGUAUGGUAAUAAGCUGACGGACAUGGUCCUAACCACGCAGCCAAGUCCUAAGUCAACAGAUCUUCUGUUGAUAUGGAUGCAGUUCACAGACUAAAUGUCGGUCGGGGAAGAUGUAUUCUUCUCAUAAGAUAUAGUCGGACCUCUCCUUAAUGGGAGCUAGCGGAUGAAGUGAUGCAACACUGGAGCCGCUGGGAACUAAUUUGUAUGCGAAAGUAUAUUGAUUAGUUUUGGAGUACUCGUGGUCG
Outline: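 A randomised library covering all eight P1ex-region intron nucleotides was built with the intron in the knt kanamycin-resistance gene on pET-22b(+) and held in E. coli BL21(DE3). Cells were grown overnight at 37°C or 30°C on LB agar, with or without 25 μg/mL kanamycin, plus 100 μg/mL carbenicillin, 50 μM IPTG and 0.2% rhamnose, and pooled colonies were amplicon-sequenced on an Illumina HiSeq 2500. DiMSum fitness is the error-weighted combination of wild-type-normalised replicate fold changes, kanamycin versus none.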

| Sequence | self-splicing fitness (ln) (30 °C) | self-splicing fitness (ln) (37 °C) |
| --- | --- | --- |
| ACAAAGCAAUAUUACGUCGU | -2.74 ± 0.093 | -2.05 ± 0.12 |
| ACAAAGCAAUAUUACGUGAG | -0.439 ± 0.049 | -0.4 ± 0.079 |
| ACAAAGCAAUAUUACGUGAU | -1.51 ± 0.063 | -1.09 ± 0.086 |
| ACAAAGCAAUAUUACGUGGC | -3.72 ± 0.21 | -2.91 ± 0.18 |
| ACAAAGCAAUAUUACGUUAA | -2.91 ± 0.17 | -1.32 ± 0.12 |
| ACAAAGCAAUAUUACGUUGA | -1.49 ± 0.079 | -1.24 ± 0.089 |
| ACACAGCAAUAUUACGAAAG | -2.32 ± 0.074 | -2.06 ± 0.11 |
| ACACAGCAAUAUUACGACAA | -1.86 ± 0.11 | -0.755 ± 0.14 |
| ACACAGCAAUAUUACGACUC | -0.737 ± 0.063 | -0.631 ± 0.072 |
| ACACAGCAAUAUUACGAGGG | -3.71 ± 0.11 | -1.85 ± 0.1 |
| ACACAGCAAUAUUACGAGUG | -1.43 ± 0.041 | -0.923 ± 0.057 |
| ACACAGCAAUAUUACGAUCC | -1.21 ± 0.093 | -0.951 ± 0.13 |
| ACACAGCAAUAUUACGAUCU | -0.658 ± 0.053 | 0.14 ± 0.082 |
| ACACAGCAAUAUUACGAUGC | -1.92 ± 0.073 | -0.965 ± 0.094 |
| ACACAGCAAUAUUACGAUUU | -0.589 ± 0.036 | 0.0571 ± 0.056 |
| ACACAGCAAUAUUACGCAUA | -2.45 ± 0.08 | -1.49 ± 0.072 |
| ACACAGCAAUAUUACGCCAC | -3.38 ± 0.33 | -2.66 ± 0.31 |
| ACACAGCAAUAUUACGCCAG | -2.45 ± 0.1 | -1.13 ± 0.13 |
| ACACAGCAAUAUUACGCCGA | -1.15 ± 0.08 | -1.34 ± 0.094 |
| ACACAGCAAUAUUACGCGAA | -2.47 ± 0.12 | -1.4 ± 0.12 |
| ACACAGCAAUAUUACGCUGC | -2.18 ± 0.16 | -1.14 ± 0.15 |
| ACACAGCAAUAUUACGGAAA | -3.13 ± 0.26 | -2.5 ± 0.22 |
| ACACAGCAAUAUUACGGACA | -1.63 ± 0.095 | -1.04 ± 0.089 |
| ACACAGCAAUAUUACGGCGA | -0.436 ± 0.086 | -0.165 ± 0.09 |
| ACACAGCAAUAUUACGGGCA | -1.48 ± 0.078 | -0.0778 ± 0.091 |
| ACACAGCAAUAUUACGGGCC | -3.37 ± 0.19 | -2.11 ± 0.18 |

| Sequence | self-splicing fitness (ln) (30 °C) | self-splicing fitness (ln) (37 °C) |
| --- | --- | --- |
| ACACAGCAAUAUUACGGGGG | -2.9 ± 0.14 | -2.45 ± 0.15 |
| ACACAGCAAUAUUACGGUCA | -0.813 ± 0.071 | 0.0237 ± 0.077 |
| ACACAGCAAUAUUACGUACA | -1.05 ± 0.059 | -0.954 ± 0.068 |
| ACACAGCAAUAUUACGUACG | -1.19 ± 0.067 | -0.925 ± 0.081 |
| ACACAGCAAUAUUACGUGCC | -1.71 ± 0.12 | -0.549 ± 0.093 |
| ACACAGCAAUAUUACGUUGA | -1.91 ± 0.091 | -1.92 ± 0.11 |
| ACACAGCAAUAUUACGUUGC | -3.87 ± 0.11 | -2.58 ± 0.12 |
| ACACAGCAAUAUUACGUUUG | -2.67 ± 0.067 | -1.59 ± 0.081 |
| ACAGAGCAAUAUUACGAGAC | -3.23 ± 0.37 | -2.67 ± 0.31 |
| ACAGAGCAAUAUUACGAGUU | -3.3 ± 0.2 | -1.8 ± 0.14 |
| ACAGAGCAAUAUUACGAUAG | -2.78 ± 0.26 | -3.02 ± 0.35 |
| ACAGAGCAAUAUUACGCAGA |  | -2.25 ± 0.33 |
| ACAGAGCAAUAUUACGCAGC |  | -2.25 ± 0.33 |
| ACAGAGCAAUAUUACGCGAA | -3.58 ± 0.25 | -1.21 ± 0.18 |
| ACAGAGCAAUAUUACGCGCA | -3.09 ± 0.26 | -0.798 ± 0.18 |
| ACAGAGCAAUAUUACGCGGG | -4.91 ± 0.46 | -3.54 ± 0.37 |
| ACAGAGCAAUAUUACGCUGC | -4.55 ± 0.46 |  |
| ACAGAGCAAUAUUACGGACA | -2.99 ± 0.3 | -2.45 ± 0.25 |
| ACAGAGCAAUAUUACGGAGC | -4.22 ± 0.34 | -3.15 ± 0.25 |
| ACAGAGCAAUAUUACGGCAU | -3.25 ± 0.23 | -0.707 ± 0.17 |
| ACAGAGCAAUAUUACGGGCG | -3.27 ± 0.19 | -1.25 ± 0.2 |
| ACAGAGCAAUAUUACGUAAA | -3.71 ± 0.16 | -2.09 ± 0.13 |
| ACAGAGCAAUAUUACGUAGA | -4.17 ± 0.37 | -2.19 ± 0.21 |
| ACAGAGCAAUAUUACGUCAA | -2.04 ± 0.21 | -3.16 ± 0.3 |
| ACAGAGCAAUAUUACGUCCU | -1.35 ± 0.21 | -0.399 ± 0.2 |
| ACAGAGCAAUAUUACGUCUA | -3.22 ± 0.33 | -1.73 ± 0.29 |

| Sequence | self-splicing fitness (ln) (30 °C) | self-splicing fitness (ln) (37 °C) |
| --- | --- | --- |
| ACAGAGCAAUAUUACGUCUC | -3.77 ± 0.19 | -2.4 ± 0.17 |
| ACAGAGCAAUAUUACGUGGG | -2.64 ± 0.12 | -2.4 ± 0.16 |
| ACAGAGCAAUAUUACGUGUA | -3.11 ± 0.15 | -2.62 ± 0.14 |
| ACAGAGCAAUAUUACGUUAG | -3.09 ± 0.16 | -2.87 ± 0.2 |
| ACAUAGCAAUAUUACGAGUA | -3.54 ± 0.43 | -1.8 ± 0.23 |
| ACAUAGCAAUAUUACGAUGA | -0.75 ± 0.072 | -0.575 ± 0.086 |
| ACAUAGCAAUAUUACGCAGC |  | -3.15 ± 0.31 |
| ACAUAGCAAUAUUACGCAGG | -2.73 ± 0.15 | -2.23 ± 0.17 |
| ACAUAGCAAUAUUACGCCGU | -2.02 ± 0.17 | -1.23 ± 0.2 |
| ACAUAGCAAUAUUACGCGAA | -3.3 ± 0.13 | -1.03 ± 0.098 |
| ACAUAGCAAUAUUACGCGAG | -1.01 ± 0.07 | -0.654 ± 0.079 |
| ACAUAGCAAUAUUACGCGUA | -2.19 ± 0.091 | -0.613 ± 0.086 |
| ACAUAGCAAUAUUACGCUGU | -3.64 ± 0.18 | -2.69 ± 0.22 |
| ACAUAGCAAUAUUACGCUUA | -1.76 ± 0.19 | -1.55 ± 0.17 |
| ACAUAGCAAUAUUACGCUUU | -2.82 ± 0.16 | -2.53 ± 0.32 |
| ACAUAGCAAUAUUACGGAAU | -3.72 ± 0.19 | -2.44 ± 0.19 |
| ACAUAGCAAUAUUACGGACG | -1.32 ± 0.1 | -0.653 ± 0.14 |
| ACAUAGCAAUAUUACGGAUA | -1.75 ± 0.17 | -2.34 ± 0.21 |
| ACAUAGCAAUAUUACGGCCA | -0.771 ± 0.12 | -0.572 ± 0.13 |
| ACAUAGCAAUAUUACGGCGC | -1.1 ± 0.083 | -0.521 ± 0.11 |
| ACAUAGCAAUAUUACGGCUG | -0.175 ± 0.067 | -0.366 ± 0.095 |
| ACAUAGCAAUAUUACGGGAG | -2.13 ± 0.11 | -1.52 ± 0.11 |
| ACAUAGCAAUAUUACGGGCC |  | -1.59 ± 0.2 |
| ACAUAGCAAUAUUACGGGUG | -1.25 ± 0.046 | -0.515 ± 0.064 |
| ACAUAGCAAUAUUACGUACU | -0.24 ± 0.077 | 0.46 ± 0.12 |
